The values below come from US20160272683A1 (Novo Nordisk, published 2016).

Sequences and labels used below:
T1: human calcitonin receptor (human, UniProt P30988 25-474)
T1 construct: whole, on cells; also called hCT-R; hCTR
T1 sequence (looked up): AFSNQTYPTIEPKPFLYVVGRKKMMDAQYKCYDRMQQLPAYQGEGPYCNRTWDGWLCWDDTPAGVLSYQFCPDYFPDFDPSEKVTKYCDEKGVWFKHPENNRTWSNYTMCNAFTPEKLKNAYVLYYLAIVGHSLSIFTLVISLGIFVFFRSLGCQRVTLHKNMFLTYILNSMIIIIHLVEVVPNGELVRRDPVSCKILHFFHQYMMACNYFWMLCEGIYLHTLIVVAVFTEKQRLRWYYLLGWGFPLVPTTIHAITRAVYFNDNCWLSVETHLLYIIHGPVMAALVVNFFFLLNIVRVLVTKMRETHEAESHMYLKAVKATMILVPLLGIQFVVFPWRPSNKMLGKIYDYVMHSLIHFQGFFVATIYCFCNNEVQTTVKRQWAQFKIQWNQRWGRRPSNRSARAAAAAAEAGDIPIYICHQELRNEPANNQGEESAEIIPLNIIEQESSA

B1: [N-terminal(C20 diacid-gGlu), -1E, 1A, 23Y, 30S, 31G]mimylin (peptide)
peptide: {C20 diacid-γGlu}-EAASELSTAALGRLSAELHELATYPRTETGSGSP-NH2
SMILES: CC(C)C[C@H](NC(=O)[C@H](C)NC(=O)[C@H](C)NC(=O)[C@@H](NC(=O)[C@H](CO)NC(=O)[C@H](CC(C)C)NC(=O)[C@H](CCC(=O)O)NC(=O)[C@H](CO)NC(=O)[C@H](C)NC(=O)[C@H](C)NC(=O)[C@H](CCC(=O)O)NC(=O)CC[C@H](NC(=O)CCCCCCCCCCCCCCCCCCC(=O)O)C(=O)O)[C@@H](C)O)C(=O)NCC(=O)N[C@@H](CCCNC(=N)N)C(=O)N[C@@H](CC(C)C)C(=O)N[C@@H](CO)C(=O)N[C@@H](C)C(=O)N[C@@H](CCC(=O)O)C(=O)N[C@@H](CC(C)C)C(=O)N[C@@H](Cc1c[nH]cn1)C(=O)N[C@@H](CCC(=O)O)C(=O)N[C@@H](CC(C)C)C(=O)N[C@@H](C)C(=O)N[C@H](C(=O)N[C@@H](Cc1ccc(O)cc1)C(=O)N1CCC[C@H]1C(=O)N[C@@H](CCCNC(=N)N)C(=O)N[C@H](C(=O)N[C@@H](CCC(=O)O)C(=O)N[C@H](C(=O)NCC(=O)N[C@@H](CO)C(=O)NCC(=O)N[C@@H](CO)C(=O)N1CCC[C@H]1C(N)=O)[C@@H](C)O)[C@@H](C)O)[C@@H](C)O
notes: also called Ex. #83
B2: [des1, 5V, 9V, 30S, 31G]mimylin (peptide)
peptide: ASEVSTAVLGRLSAELHELATLPRTETGSGSP-NH2
notes: backbone without side chain; also called Ex. #86bb; 86bb
B3: [des1, 6T, 9V, 14E, 21T, 30T, 31G, 32T]mimylin (peptide)
peptide: ASELTTAVLGRLEAELHELTTLPRTETGTGTP-NH2
notes: backbone without side chain
B4: [des1, 6T, 9V, 30T, 31G, 32T]mimylin (peptide)
peptide: ASELTTAVLGRLSAELHELATLPRTETGTGTP-NH2
notes: backbone without side chain; also called Ex. #95bb; 95bb
B5: [des1, 12H, 30S, 31G]mimylin (peptide)
peptide: ASELSTAALGHLSAELHELATLPRTETGSGSP-NH2
notes: backbone without side chain; also called Ex. #72bb; 72bb
B6: [N-terminal(C18 diacid-gGlu-2xOEG), des1, 4G, 9V, 15Q, 21Q, 23Y, 30S, 31G, 32T, 33Y]mimylin (peptide)
peptide: {C18 diacid-γGlu-AEEA-AEEA}-ASGLSTAVLGRLSQELHELQTYPRTETGSGTY-NH2
SMILES: CC(C)C[C@H](NC(=O)CNC(=O)[C@H](CO)NC(=O)[C@H](C)NC(=O)COCCOCCNC(=O)COCCOCCNC(=O)CC[C@H](NC(=O)CCCCCCCCCCCCCCCCC(=O)O)C(=O)O)C(=O)N[C@@H](CO)C(=O)N[C@H](C(=O)N[C@@H](C)C(=O)N[C@H](C(=O)N[C@@H](CC(C)C)C(=O)NCC(=O)N[C@@H](CCCNC(=N)N)C(=O)N[C@@H](CC(C)C)C(=O)N[C@@H](CO)C(=O)N[C@@H](CCC(N)=O)C(=O)N[C@@H](CCC(=O)O)C(=O)N[C@@H](CC(C)C)C(=O)N[C@@H](Cc1c[nH]cn1)C(=O)N[C@@H](CCC(=O)O)C(=O)N[C@@H](CC(C)C)C(=O)N[C@@H](CCC(N)=O)C(=O)N[C@H](C(=O)N[C@@H](Cc1ccc(O)cc1)C(=O)N1CCC[C@H]1C(=O)N[C@@H](CCCNC(=N)N)C(=O)N[C@H](C(=O)N[C@@H](CCC(=O)O)C(=O)N[C@H](C(=O)NCC(=O)N[C@@H](CO)C(=O)NCC(=O)N[C@H](C(=O)N[C@@H](Cc1ccc(O)cc1)C(N)=O)[C@@H](C)O)[C@@H](C)O)[C@@H](C)O)[C@@H](C)O)C(C)C)[C@@H](C)O
notes: also called Ex. #121
B7: [N-terminal(C20 diacid), des1, 4G, 15Q, 21Q, 23Y, 30S, 31G, 32T, 33Y]mimylin (peptide)
peptide: {C20 diacid}-ASGLSTAALGRLSQELHELQTYPRTETGSGTY-NH2
SMILES: CC(C)C[C@H](NC(=O)CNC(=O)[C@H](CO)NC(=O)[C@H](C)NC(=O)CCCCCCCCCCCCCCCCCCC(=O)O)C(=O)N[C@@H](CO)C(=O)N[C@H](C(=O)N[C@@H](C)C(=O)N[C@@H](C)C(=O)N[C@@H](CC(C)C)C(=O)NCC(=O)N[C@@H](CCCNC(=N)N)C(=O)N[C@@H](CC(C)C)C(=O)N[C@@H](CO)C(=O)N[C@@H](CCC(N)=O)C(=O)N[C@@H](CCC(=O)O)C(=O)N[C@@H](CC(C)C)C(=O)N[C@@H](Cc1c[nH]cn1)C(=O)N[C@@H](CCC(=O)O)C(=O)N[C@@H](CC(C)C)C(=O)N[C@@H](CCC(N)=O)C(=O)N[C@H](C(=O)N[C@@H](Cc1ccc(O)cc1)C(=O)N1CCC[C@H]1C(=O)N[C@@H](CCCNC(=N)N)C(=O)N[C@H](C(=O)N[C@@H](CCC(=O)O)C(=O)N[C@H](C(=O)NCC(=O)N[C@@H](CO)C(=O)NCC(=O)N[C@H](C(=O)N[C@@H](Cc1ccc(O)cc1)C(N)=O)[C@@H](C)O)[C@@H](C)O)[C@@H](C)O)[C@@H](C)O)[C@@H](C)O
B8: [N-terminal(C20 diacid-gGlu), des1, 2L, 4G, 9V, 21S, 23Y, 30S, 31G, 32T, 33Y]mimylin (peptide)
peptide: {C20 diacid-γGlu}-LSGLSTAVLGRLSAELHELSTYPRTETGSGTY-NH2
SMILES: CC(C)C[C@H](NC(=O)CC[C@H](NC(=O)CCCCCCCCCCCCCCCCCCC(=O)O)C(=O)O)C(=O)N[C@@H](CO)C(=O)NCC(=O)N[C@@H](CC(C)C)C(=O)N[C@@H](CO)C(=O)N[C@H](C(=O)N[C@@H](C)C(=O)N[C@H](C(=O)N[C@@H](CC(C)C)C(=O)NCC(=O)N[C@@H](CCCNC(=N)N)C(=O)N[C@@H](CC(C)C)C(=O)N[C@@H](CO)C(=O)N[C@@H](C)C(=O)N[C@@H](CCC(=O)O)C(=O)N[C@@H](CC(C)C)C(=O)N[C@@H](Cc1c[nH]cn1)C(=O)N[C@@H](CCC(=O)O)C(=O)N[C@@H](CC(C)C)C(=O)N[C@@H](CO)C(=O)N[C@H](C(=O)N[C@@H](Cc1ccc(O)cc1)C(=O)N1CCC[C@H]1C(=O)N[C@@H](CCCNC(=N)N)C(=O)N[C@H](C(=O)N[C@@H](CCC(=O)O)C(=O)N[C@H](C(=O)NCC(=O)N[C@@H](CO)C(=O)NCC(=O)N[C@H](C(=O)N[C@@H](Cc1ccc(O)cc1)C(N)=O)[C@@H](C)O)[C@@H](C)O)[C@@H](C)O)[C@@H](C)O)C(C)C)[C@@H](C)O
B9: [N-terminal(C20 diacid-gGlu), des1, 4G, 8L, 9V, 15Q, 21Q, 23Y, 30S, 31Q, 32T, 33Y]mimylin (peptide)
peptide: {C20 diacid-γGlu}-ASGLSTLVLGRLSQELHELQTYPRTETGSQTY-NH2
SMILES: CC(C)C[C@H](NC(=O)CNC(=O)[C@H](CO)NC(=O)[C@H](C)NC(=O)CC[C@H](NC(=O)CCCCCCCCCCCCCCCCCCC(=O)O)C(=O)O)C(=O)N[C@@H](CO)C(=O)N[C@H](C(=O)N[C@@H](CC(C)C)C(=O)N[C@H](C(=O)N[C@@H](CC(C)C)C(=O)NCC(=O)N[C@@H](CCCNC(=N)N)C(=O)N[C@@H](CC(C)C)C(=O)N[C@@H](CO)C(=O)N[C@@H](CCC(N)=O)C(=O)N[C@@H](CCC(=O)O)C(=O)N[C@@H](CC(C)C)C(=O)N[C@@H](Cc1c[nH]cn1)C(=O)N[C@@H](CCC(=O)O)C(=O)N[C@@H](CC(C)C)C(=O)N[C@@H](CCC(N)=O)C(=O)N[C@H](C(=O)N[C@@H](Cc1ccc(O)cc1)C(=O)N1CCC[C@H]1C(=O)N[C@@H](CCCNC(=N)N)C(=O)N[C@H](C(=O)N[C@@H](CCC(=O)O)C(=O)N[C@H](C(=O)NCC(=O)N[C@@H](CO)C(=O)N[C@@H](CCC(N)=O)C(=O)N[C@H](C(=O)N[C@@H](Cc1ccc(O)cc1)C(N)=O)[C@@H](C)O)[C@@H](C)O)[C@@H](C)O)[C@@H](C)O)C(C)C)[C@@H](C)O
B10: [N-terminal(C20 diacid-gGlu), des1, 23Y, 30S, 31G, 34G, C-terminal(-)]mimylin (peptide)
peptide: {C20 diacid-γGlu}-ASELSTAALGRLSAELHELATYPRTETGSGSPG-OH
SMILES: CC(C)C[C@H](NC(=O)[C@H](C)NC(=O)[C@H](C)NC(=O)[C@@H](NC(=O)[C@H](CO)NC(=O)[C@H](CC(C)C)NC(=O)[C@H](CCC(=O)O)NC(=O)[C@H](CO)NC(=O)[C@H](C)NC(=O)CC[C@H](NC(=O)CCCCCCCCCCCCCCCCCCC(=O)O)C(=O)O)[C@@H](C)O)C(=O)NCC(=O)N[C@@H](CCCNC(=N)N)C(=O)N[C@@H](CC(C)C)C(=O)N[C@@H](CO)C(=O)N[C@@H](C)C(=O)N[C@@H](CCC(=O)O)C(=O)N[C@@H](CC(C)C)C(=O)N[C@@H](Cc1c[nH]cn1)C(=O)N[C@@H](CCC(=O)O)C(=O)N[C@@H](CC(C)C)C(=O)N[C@@H](C)C(=O)N[C@H](C(=O)N[C@@H](Cc1ccc(O)cc1)C(=O)N1CCC[C@H]1C(=O)N[C@@H](CCCNC(=N)N)C(=O)N[C@H](C(=O)N[C@@H](CCC(=O)O)C(=O)N[C@H](C(=O)NCC(=O)N[C@@H](CO)C(=O)NCC(=O)N[C@@H](CO)C(=O)N1CCC[C@H]1C(=O)NCC(=O)O)[C@@H](C)O)[C@@H](C)O)[C@@H](C)O
notes: also called Ex. #89
B11: [N-terminal(C20 diacid-gGlu), des1, 23Y, 30S, 31G, 34K, C-terminal(-)]mimylin (peptide)
peptide: {C20 diacid-γGlu}-ASELSTAALGRLSAELHELATYPRTETGSGSPK-OH
SMILES: CC(C)C[C@H](NC(=O)[C@H](C)NC(=O)[C@H](C)NC(=O)[C@@H](NC(=O)[C@H](CO)NC(=O)[C@H](CC(C)C)NC(=O)[C@H](CCC(=O)O)NC(=O)[C@H](CO)NC(=O)[C@H](C)NC(=O)CC[C@H](NC(=O)CCCCCCCCCCCCCCCCCCC(=O)O)C(=O)O)[C@@H](C)O)C(=O)NCC(=O)N[C@@H](CCCNC(=N)N)C(=O)N[C@@H](CC(C)C)C(=O)N[C@@H](CO)C(=O)N[C@@H](C)C(=O)N[C@@H](CCC(=O)O)C(=O)N[C@@H](CC(C)C)C(=O)N[C@@H](Cc1c[nH]cn1)C(=O)N[C@@H](CCC(=O)O)C(=O)N[C@@H](CC(C)C)C(=O)N[C@@H](C)C(=O)N[C@H](C(=O)N[C@@H](Cc1ccc(O)cc1)C(=O)N1CCC[C@H]1C(=O)N[C@@H](CCCNC(=N)N)C(=O)N[C@H](C(=O)N[C@@H](CCC(=O)O)C(=O)N[C@H](C(=O)NCC(=O)N[C@@H](CO)C(=O)NCC(=O)N[C@@H](CO)C(=O)N1CCC[C@H]1C(=O)N[C@@H](CCCCN)C(=O)O)[C@@H](C)O)[C@@H](C)O)[C@@H](C)O
notes: also called Ex. #90

Numbered stars: 1 amine (or outer) side, 2 acyl side, 3 side chain; on linkers, the order of the positions; unused ones are H or OH. Ends that are not written are not given here. * marks the point of attachment. C20 diacid = O=C(O)CCCCCCCCCCCCCCCCCCC(=O)*; C18 diacid = O=C(O)CCCCCCCCCCCCCCCCC(=O)*; γGlu = O=C(O)[C@H](CCC(=O)[*:2])N[*:1]; AEEA = NCCOCCOCC(=O)O

This assay deals with T1, human calcitonin receptor. Kind of assay: whole-cell competition vs 125I-human calcitonin (Assay VIIa). In a few lines: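 BHK tk'ts 13 cells stably co-expressing human calcitonin receptor and a CRE-luciferase reporter, seeded overnight at 37 °C. Bound tracer counted by scintillation after cold HBSS washes and NaOH/SDS lysis; IC₅₀ from one-site competition fit taken as receptor affinity.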
As for B1, the IC50 (commonly the concentration that inhibits the measured activity by half) was 1.57 nM.
The figure for B2 is 0.52 nM; for B3 it is 62.9 nM; for B4 it is 15.3 nM.
For the molecule B5, the IC50 came to 4.53 nM.
The figure for B6 is 0.3 nM; for B7 it is 0.747 nM.
With B8, the half-maximal inhibitory concentration (IC50) was determined as 5.62 nM.
Regarding B9, the IC50 was 1.83 nM.
In the case of B10 it was 3.6 nM; in that of B11, 6.84 nM.
